{"source": "paper PMC10681719", "about": "“An archaeal virus-encoded anti-CRISPR protein inhibits type III-B immunity by inhibiting Cas RNP complex turnover”", "key": {"[1]": {"target": "Cmr-α ribonucleoprotein complex (RNP) (S. islandicus | S. islandicus (endogenous in the expression strain))"}, "AcrIIIB2 [2]": {"target": "T1, AcrIIIB2 (Sulfolobus islandicus rod-shaped virus …, UniProt A0A1B3SN31 1-149)", "T1 sequence": "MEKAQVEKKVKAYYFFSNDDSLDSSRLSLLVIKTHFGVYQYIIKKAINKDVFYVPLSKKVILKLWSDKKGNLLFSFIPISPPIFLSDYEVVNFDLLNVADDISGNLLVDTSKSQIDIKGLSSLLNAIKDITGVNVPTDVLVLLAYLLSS", "test": "EMSA; 10 mM EDTA; no difference in affinity among RNAs; EMSA: 20 mM MES pH 6.0, 10 mM EDTA, 250 nM FAM substrate, 70 C for 5 min (10 min stated for RNP in Methods); 12% native PAGE in 0.5x TB", "details": "protein: recombinant, tags: C-terminal 6xHis (pET30a)"}, "AcrIIIB2 [3]": {"target": "T1, AcrIIIB2", "test": "EMSA; 250 nM RNA, 0-15 uM protein, 10 mM EDTA, 70 C; also binds at lower temperature; EMSA: 20 mM MES pH 6.0, 10 mM EDTA, 250 nM FAM substrate, 70 C for 5 min (10 min stated for RNP in Methods); 12% native PAGE in 0.5x TB", "details": "protein: recombinant; tags: C-terminal 6xHis (pET30a); label: 5'-FAM"}}, "data": [{"molecule": "His-tagged AcrIIIB2 (natural protein)", "values": [{"measurement": "cis RNase activity of Cmr-α RNP (100 nM) on 250 nM labeled target RNA: uncleaved target RNA, AcrIIIB2 to Cmr-α RNP molar ratios 0 to 30", "setting": "[1]", "result": 80, "unit": "%"}, {"measurement": "trans ssDNase activity of Cmr-α RNP (100 nM) with 300 nM target RNA and 300 nM labeled ssDNA: uncleaved ssDNA, AcrIIIB2 to Cmr-α RNP molar ratios 0 to 30", "setting": "[1]", "result": 15, "unit": "%"}]}, {"molecule": "CCAAGCUAAUCUACUAUAGAAUUGAAAGCU (ssRNA)", "note": "[RNA2]", "values": [{"measurement": "binding result", "setting": "AcrIIIB2 [2]; label: 5'-FAM", "result": "binds"}]}, {"molecule": "GUGACAGCAUCUCAUACUAGACAG (ssRNA)", "note": "[RNA4]", "values": [{"measurement": "binding result", "setting": "AcrIIIB2 [2]; label: 3'-FAM", "result": "binds"}]}, {"molecule": "UCAAAGCUUAGAUACCCUGGA (ssRNA)", "note": "[RNA3]", "values": [{"measurement": "binding result", "setting": "AcrIIIB2 [2]; label: 5'-FAM", "result": "binds"}]}, {"molecule": "AGUCUCGUAACCAGUCCAAGAACAGAAACCAGUCAAAUGACCG (ssRNA)", "note": "[RNA1 (target RNA, 43 nt)]", "values": [{"measurement": "binding result", "setting": "AcrIIIB2 [3]", "result": "binds"}]}]}
